The experiment deals with Leishmania tarentolae propionyl-CoA carboxylase (LtPCC) β-subunit (Leishmania tarentolae (endogenous in L. tarentolae cells)). Put plainly: cryo-EM structure; endogenous LtPCC complexes from streptavidin pull-down, in 20 mM Tris-HCl pH 7.5, 60 mM KCl, 5 mM MgCl2, 1 mM DTT, 5 mM OG; α6β6 map with D3 symmetry at 3.2 Å, α5β6 (8.6 Å) and α4β6 (10.3 Å) maps with C1 symmetry.

The results in this text go back to publication PMC10148081.

As for “Leishmania tarentolae propionyl-CoA carboxylase (LtPCC) β-subunit (natural protein)”, the stoichiometry N – broadly, a count of units in the complex or per binding partner – was determined as 6.
